One molecule from article PMC3258524, “Regulation of the human tyrosinase gene in retinal pigment epithelium cells: the significance of transcription factor orthodenticle homeobox 2 and its polymorphic binding site” (Molecular Vision, 2012) can be followed below.

For assay [1], the target named is T1, full-length MITF-M (microphthalmia-associated transcription factor, isoform M) (UniProt O75030-9 1-419).
T1 sequence (looked up): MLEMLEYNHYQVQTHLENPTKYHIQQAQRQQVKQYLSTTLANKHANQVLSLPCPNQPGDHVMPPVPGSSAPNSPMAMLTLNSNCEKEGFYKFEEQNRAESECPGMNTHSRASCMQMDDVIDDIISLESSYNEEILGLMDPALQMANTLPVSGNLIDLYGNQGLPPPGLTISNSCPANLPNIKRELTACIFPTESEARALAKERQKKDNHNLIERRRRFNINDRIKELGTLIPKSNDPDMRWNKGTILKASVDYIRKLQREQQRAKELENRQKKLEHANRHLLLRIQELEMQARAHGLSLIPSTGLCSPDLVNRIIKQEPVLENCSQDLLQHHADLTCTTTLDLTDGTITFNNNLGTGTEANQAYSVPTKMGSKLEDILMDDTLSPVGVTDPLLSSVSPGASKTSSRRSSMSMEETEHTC
Put plainly: cell-based or functional assay.

Assay [2] addresses T2, full-length MITF-A (microphthalmia-associated transcription factor, isoform A) (UniProt O75030-2 1-520).
T2 sequence (looked up): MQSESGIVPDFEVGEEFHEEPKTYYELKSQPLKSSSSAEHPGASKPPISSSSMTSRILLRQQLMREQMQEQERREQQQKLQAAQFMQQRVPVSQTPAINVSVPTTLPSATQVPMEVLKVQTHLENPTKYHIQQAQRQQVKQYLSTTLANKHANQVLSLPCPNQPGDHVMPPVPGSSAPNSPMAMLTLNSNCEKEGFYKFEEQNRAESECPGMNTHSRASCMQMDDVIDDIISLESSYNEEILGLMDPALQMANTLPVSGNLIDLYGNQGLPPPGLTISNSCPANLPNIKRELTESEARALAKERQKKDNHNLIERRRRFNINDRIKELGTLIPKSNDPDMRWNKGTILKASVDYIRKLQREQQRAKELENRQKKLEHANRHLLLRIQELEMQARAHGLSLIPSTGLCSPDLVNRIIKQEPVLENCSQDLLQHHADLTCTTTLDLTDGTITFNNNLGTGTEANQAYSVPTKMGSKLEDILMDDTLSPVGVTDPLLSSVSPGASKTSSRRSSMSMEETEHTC
Put plainly: cell-based or functional assay.

B1: full-length OTX2 (orthodenticle homeobox 2) (natural protein)
chain: not shown
Consider B1, for which the “luciferase reporter driven by the human TYR promoter construct -152 (MITF sites, no OTX2 sites) in ARPE-19 cells cotransfected with MITF-M and OTX2; synergism compared with that of MITF-A and OTX2” value in assay [1] is ~1.7 fold (against MITF-A). For the same molecule, the “luciferase reporter driven by the human TYR promoter construct -152 (MITF sites, no OTX2 sites) in ARPE-19 cells cotransfected with MITF-A and OTX2; activation relative to the empty vector” value in assay [2] stood at 20 fold.
